Assay [1] deals with T1, Fc-VHH antibody of VHH4 (alpaca).
T1 construct: as the VHH of m6; form used for flow cytometry; source: ExpiCHO, transfected, purified from the supernatant (rProtein A Sepharose, SEC); not shown: Fc (Fc region of trastuzumab), C-terminal, kept
Put plainly: flow cytometry on cells; Expi293 cells transfected with Glut1 against empty vector; 1 μM Fc-VHH with Alexa Fluor 488 anti-human IgG, on ice 60 min. The settings on record: one partner purified. (In general: Flow cytometry measures light scatter and fluorescence of single cells or particles in a stream.)

In assay [2] the target is T2, Fc-VHH antibody of VHH5 (alpaca).
T2 construct: as the VHH of m7; form used for flow cytometry; source: ExpiCHO, transfected, purified from the supernatant (rProtein A Sepharose, SEC); not shown: Fc (Fc region of trastuzumab), C-terminal, kept
Described as above. The settings on record: one partner purified.

Assay [3] has as its target T1, Fc-VHH antibody of VHH4. The assay is described as follows: flow cytometry on cells; HCT116 cells with endogenous Glut1; 1 μM Fc-VHH with Alexa Fluor 488 anti-human IgG, on ice 60 min. The settings on record: one partner purified.
The target in assay [4] is T2, Fc-VHH antibody of VHH5. The description is as above. Conditions: one partner purified.
For assay [5], the target named is T3, full-length Glut1 as a recombinant protein (Homo sapiens, UniProt P11166).
T3 construct: glucose transporter 1 (Glut1), human, full length; also called glucose transporter 1; full-length Glut1 in micelles; source: High Five insect cells (baculovirus), purified (solubilised with n-dodecyl-β-D-maltopyranoside, Ni-NTA, SEC); not shown: His10, C-terminal, kept
Put plainly: SPR; Biacore 8K; His-tagged Glut1 captured by anti-His antibodies on a CM5 chip; VHH injected at 123 nM-10 μM, single-cycle kinetics; 25 mM Mes-NaOH pH 6.0, 150 mM NaCl, 5% glycerol, 0.05% n-dodecyl-β-D-maltoside, 25 °C. Conditions: both partners purified. For orientation: In SPR one partner is held on a chip, and binding of the other changes the refractive index at the surface.

A further assay addresses T4, Anti-Glut4 VHH (alpaca).
T4 construct: alpaca VHH; selected by phage display from an alpaca immunized with Adhiron-Glut4; also called the VHH; anti-Glut4 VHH antibody; source: E. coli BL21(DE3), purified (Ni-NTA, SEC)
The assay is described as follows: ITC; 10 uM VHH in the cell; 100 uM fusion protein (or scaffold protein Adhiron-WT) titrated, 20 injections of 2 ul at intervals of 120 s; PBS pH 7.4, 25 °C; n = 3, mean ± s.e.m. The settings on record: both partners purified.

The values that follow come from PMC10862009, “Generation of antibodies to an extracellular region of the transporters Glut1/Glut4 by immunization with a designed antigen” (The Journal of Biological Chemistry, 2024).

T4 sequence (VHH, as listed by the source): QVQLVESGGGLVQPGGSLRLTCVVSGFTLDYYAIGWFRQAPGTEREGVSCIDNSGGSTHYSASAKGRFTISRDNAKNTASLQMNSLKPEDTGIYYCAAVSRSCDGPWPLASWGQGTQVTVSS

B1: Glut1 overexpressed on Expi293 cells (natural protein, human, UniProt P11166 1-492, looked up)
chain: MEPSSKKLTGRLMLAVGGAVLGSLQFGYNTGVINAPQKVIEEFYNQTWVHRYGESILPTTLTTLWSLSVAIFSVGGMIGSFSVGLFVNRFGRRNSMLMMNLLAFVSAVLMGFSKLGKSFEMLILGRFIIGVYCGLTTGFVPMYVGEVSPTALRGALGTLHQLGIVVGILIAQVFGLDSIMGNKDLWPLLLSIIFIPALLQCIVLPFCPESPRFLLINRNEENRAKSVLKKLRGTADVTHDLQEMKEESRQMMREKKVTILELFRSPAYRQPILIAVVLQLSQQLSGINAVFYYSTSIFEKAGVQQPVYATIGSGIVNTAFTVVSLFVVERAGRRTLHLIGLAGMAGCAILMTIALALLEQLPWMSYLSIVAIFGFVAFFEVGPGPIPWFIVAELFSQGPRPAAIAVAGFSNWTSNFIVGMCFQYVEQLCGPYVFIIFTVLLVLFFIFTYFKVPETKGRTFDEIASGFRQGGASQSDKTPEELFHPLGADSQV
notes: glucose transporter 1 (Glut1), human, on the surface of transfected Expi293 cells; also called Glut1 on the cell membrane; overexpressed Glut1; source: Expi293, transfected (pcDNA 3.4), on cells
Consider B1, for which the binding result with Fc-VHH antibody of VHH4 [1] and with Fc-VHH antibody of VHH5 [2] was “binds” throughout.

B2: endogenous Glut1 on HCT116 cells (natural protein, human (endogenous in HCT116), UniProt P11166 1-492, looked up)
chain: MEPSSKKLTGRLMLAVGGAVLGSLQFGYNTGVINAPQKVIEEFYNQTWVHRYGESILPTTLTTLWSLSVAIFSVGGMIGSFSVGLFVNRFGRRNSMLMMNLLAFVSAVLMGFSKLGKSFEMLILGRFIIGVYCGLTTGFVPMYVGEVSPTALRGALGTLHQLGIVVGILIAQVFGLDSIMGNKDLWPLLLSIIFIPALLQCIVLPFCPESPRFLLINRNEENRAKSVLKKLRGTADVTHDLQEMKEESRQMMREKKVTILELFRSPAYRQPILIAVVLQLSQQLSGINAVFYYSTSIFEKAGVQQPVYATIGSGIVNTAFTVVSLFVVERAGRRTLHLIGLAGMAGCAILMTIALALLEQLPWMSYLSIVAIFGFVAFFEVGPGPIPWFIVAELFSQGPRPAAIAVAGFSNWTSNFIVGMCFQYVEQLCGPYVFIIFTVLLVLFFIFTYFKVPETKGRTFDEIASGFRQGGASQSDKTPEELFHPLGADSQV
notes: glucose transporter 1 (Glut1), endogenous on the surface of HCT116 colon cancer cells; source: endogenous, on HCT116 cells
B2: the binding result with Fc-VHH antibody of VHH4 [3] and in the assay with Fc-VHH antibody of VHH5 [4] was “binds” throughout.

B3: VHH4 with a FLAG tag (VHH)
VHH: EVQLVESGGGLVQPGGSLRLSCAASGFTLDRYAIGWFRQAPGKEREGISCISSGSGSRVYADSVKGRFTVSRDNVENTVSLEMNSLKPEDTAVYYCAAEADYYCSGYPIYRKFGSWGQGTQVTVSS
notes: as the VHH of m6; Form prepared for SPR; source: E. coli BL21(DE3), purified (DDDDK-tagged Protein Purification Gel, SEC)
For the molecule B3, the binding result in assay [5] is listed as “binds”.

B4: Adhiron-Glut4 (other)
chain: ENSLEIEELARFAVDEHNKKENALLEFVRVVKAKEQGGGGSAPQKVIEQSYNETWLGRQGPEGPSSIPPGTLTTLWALSVGGGGSTMYYLTLEAKDGGKKKLYEAKVWVKPWENFKELQEFKPV
modifications: Limits of the Glut4 graft are not printed: 47-85 is the homologue of Glut1 35-69 (two extracellular helices). Graft site is assumed to be as in Adhiron-Glut1: loop 47VVAG50 (entity 37-40, offset 10) …
For the molecule B4, in the assay with Anti-Glut4 VHH, the equilibrium dissociation constant (Kd) stood at 3.67 nM and the “stoichiometry N” value turned out to be 1.02.

B5: VHH5 with a FLAG tag (VHH)
VHH: ELQLVESGGGLVQPGGSLRLSCAVSGVAFEDYAIGWFRQAPGKEREGVSCISSGSGSRIYTDSVKGRFTVSRDNPKNTVDLQMDSLKPEDTAVYYCAAERDYYCSGYPTYRAFSSWGEGTQVTVSS
notes: as the VHH of m7; Form prepared for SPR; source: E. coli BL21(DE3), purified (DDDDK-tagged Protein Purification Gel, SEC)
Consider B5, for which the binding result in assay [5] is recorded as “binds”.

In general, Kd refers to a measure of binding affinity in units of concentration. Read a low Kd as tighter binding. The stoichiometry N is a count of units in the complex or per binding partner.
